Results on 17 molecules are retold here after patent US20250108100A1, “C-TERMINAL FRAGMENT OF APOLIPOPROTEIN E AND APPLICATION THEREOF IN INHIBITING y-SECRETASE ACTIVITY” (SYNPHATEC (SHANGHAI) BIOPHARMACEUTICAL TECHNOLOGY CO., LTD., priority 2022, published 2025).

Sequences and labels used below:
B1: CT A80: SEQ ID NO: 51; ApoE CT mutant P80A (P295A of SEQ ID NO: 12) (protein)
chain: ARMEEMGSRTRDRLDEVKEQVAEVRAKLEEQAQQIRLQAEAFQARLKSWFEPLVEDMQRQWAGLVEKVQAAVGTSAAPVASDNH
B2: CT A36/74: SEQ ID NO: 52; ApoE CT mutant R36A + T74A (R251A + T289A of SEQ ID NO: 12) (protein)
chain: B1 chain with R36A, T74A, A80P
B3: CT A72: SEQ ID NO: 50; ApoE CT mutant V72A (V287A of SEQ ID NO: 12) (protein)
chain: B1 chain with V72A, A80P
B4: monkey CT: SEQ ID NO: 62; non-human primate-derived ApoE CT, R36S+T74A+A76T versus human ApoE CT (protein)
chain: B1 chain with R36S, T74A, A76T, A80P
B5: ApoE2-M3F: SEQ ID NO: 60; ApoE2 with 3×FLAG added between residues 215 and 216 (protein)
chain: KVEQAVETEPEPELRQQTEWQSGQRWELALGRFWDYLRWVQTLSEQVQEELLSSQVTQELRALMDETMKELKAYKSELEEQLTPVAEETRARLSKELQAAQARLGADMEDVCGRLVQYRGEVQAMLGQSTEELRVRLASHLRKLRKRLLRDADDLQKCLAVYQAGAREGAERGLSAIRERLGPLVEQGRVRAATVGSLAGQPLQERAQAWGERLRGSGGSDYKDHDGDYKDHDIDYKDDDDKSGSGSARMEEMGSRTRDRLDEVKEQVAEVRAKLEEQAQQIRLQAEAFQARLKSWFEPLVEDMQRQWAGLVEKVQAAVGTSAAPVPSDNH
modifications: 3xFLAG inserted between residues 215 and 216
B6: CT E20: SEQ ID NO: 55; multiple site mutant of ApoE CT (protein)
chain: B1 chain with Q20A, E40A, Q60A
B7: CT E5: SEQ ID NO: 53; multiple site mutant of ApoE CT (protein)
chain: ARMEEMGSRARDRLAEVKEAVAEVAAKLEAQAQQARLQAAAFQAALKSWAEPLVADMQRAWAGLAEKVQAAVGTAAAPVASDNH
B8: CT E10: SEQ ID NO: 54; multiple site mutant of ApoE CT (protein)
chain: B1 chain with T10A, Q20A, E30A, E40A, F50A, Q60A
B9: CT LM5: SEQ ID NO: 59; ApoE CT mutant E23A + V24A + R25A + K27A (protein)
chain: B1 chain with E23A, V24A, R25A, K27A, A80P
B10: CT A60: SEQ ID NO: 48; ApoE CT mutant Q60A (Q275A of SEQ ID NO: 12) (protein)
chain: B1 chain with Q60A, A80P
B11: CT F5: SEQ ID NO: 56; multiple site mutant of ApoE CT (protein)
chain: B1 chain with R2A, M3A, E4A, E5A, A80P
B12: CT A65: SEQ ID NO: 49; ApoE CT mutant V65A (V280A of SEQ ID NO: 12) (protein)
chain: B1 chain with V65A, A80P
B13: CT R10: SEQ ID NO: 57; ApoE CT mutant S75A + P78A + V79A + P80A + S81A + D82A + N83A + H84A (protein)
chain: B1 chain with S75A, P78A, V79A, S81A, D82A, N83A, H84A
B14: CT A40: SEQ ID NO: 47; ApoE CT mutant E40A (E255A of SEQ ID NO: 12); table prints CT A20 (protein)
chain: B1 chain with E40A, A80P
B15: CT LF5: SEQ ID NO: 58; ApoE CT mutant R11A + D12A + R13A + L14A + D15A (protein)
chain: B1 chain with R11A, D12A, R13A, L14A, D15A, A80P
B16: CT A20: SEQ ID NO: 46; ApoE CT mutant Q20A (Q235A of SEQ ID NO: 12) (protein)
chain: B1 chain with Q20A, A80P
B17: ApoE2 MD10: SEQ ID NO: 61; ApoE2 with amino acid residues at positions 244 to 254 deleted (protein)
chain: KVEQAVETEPEPELRQQTEWQSGQRWELALGRFWDYLRWVQTLSEQVQEELLSSQVTQELRALMDETMKELKAYKSELEEQLTPVAEETRARLSKELQAAQARLGADMEDVCGRLVQYRGEVQAMLGQSTEELRVRLASHLRKLRKRLLRDADDLQKCLAVYQAGAREGAERGLSAIRERLGPLVEQGRVRAATVGSLAGQPLQERAQAWGERLRARMEEMGSRTRDRLDEVKEQVAEVRAKLEAFQARLKSWFEPLVEDMQRQWAGLVEKVQAAVGTSAAPVPSDNH

Where a chain is given by its changes, count along the chain named. In names and notes the source's numbering stands. Entries after “also recorded” stand apart in the source; their conditions may differ.

The first test relates to human APP co-expressed in HEK 293T cells. As to the kind of experiment: α-CTF produced by APP co-expressed in HEK 293T cells (Western blot). Conditions: ApoE CT positive control. The test is classed as cell-based. The method, then:
• a) A plasmid expressing the target protein in mammalian cells was constructed, and the protein expression promoter is CAG. • b) The target protein was expressed in HEK 293T cell line. Cells were subcultured one day before transfection, and transfection was performed when the degree of cell adhesion reached 70%-80%. The transfection reagent was lipofectamine2000 (ThermoFisher). • c) 4-6 hours post transfection, the medium were replaced with fresh cell culture medium. • d) 36-48 hours post transfection, the cells were lysed (10% 1M tris-HCl (pH=6.8), 4% SDS, 20% glycerol, 0.01% bromophenol blue), and the protein samples were collected and used for Western blot or stored in a −80° C. freezer. • e) Polyacrylamide gel electrophoresis. Before protein loading, the protein was boiled at 98° C. for 10 min, and then centrifuged at 12000 rpm for 10 min. Electrophoresis: 80V for the upper stacking gel; 120V for the lower separating gel. • f) Protein transfer. The filter paper was soaked in the electrophoresis solution before use, and the PVDF membrane was put in methanol for 10s to activate, and the gel after electrophoresis was taken out from the electrophoresis tank, put in the order of filter paper—PVD membrane—gel-filter paper from bottom to top, and they were put into the transfer instrument, with transferring in constant current at 0.1 A for 70 min. • g) Blocking and antibody incubation: the transferred PVDF membrane was placed in 5% BSA/TBST blocking solution, and blocked on a shaker at room temperature for 1 hour. The primary antibody was used to incubate at 4° C. overnight on a shaker (12-16 h); 1×TBST was used to wash three times, once every 10 minutes; the secondary antibody was used to incubate, shaked at room temperature for 1-2 h; 1×TBST was used to wash three times, once every 10 minutes. • h) Imaging by development: development was performed with ECL chemiluminescence hypersensitive chromogenic reagent.
Plasmids were transfected in HEK 293T or N2A cells for 36-48 hours and then lysed in cell lysis buffer [10% 1M tris-HCl (pH=6.8), 4% SDS, 20% glycerol, 0.01% bromophenol blue]. Lysates were shaken at room temperature for 10 min, then boiled for 10 min, and centrifuged at 12,000×g for 10 min. Proteins were run on 8% or 12% Tris-glycine SDS-PAGE and transferred to PVDF membranes (Life Technologies). Samples were incubated overnight at 4° C. with primary antibody diluted in 5% BSA buffer (in 1×TBST). After washing 3 times with 1×TBST, they were incubated with secondary antibody diluted in 5% BSA buffer (in 1×TBST) for 2 hours at room temperature. Finally, after washing 3 times with 1×TBST, the signal was detected by ECL Western blotting substrate (Solarbio, PE0010).
Data were analyzed by GraphPad Prism software (v6) using unpaired, paired, or one-sample t-tests. Aβ40 and Aβ42 levels were normalized to the corresponding GFP controls. α-CTF levels were normalized to FL-APP and corresponding GFP controls. All data are represented as mean±SEM. Statistical significance was defined as p<0.05. One, two, three and four stars (*) in the graph indicate p-values <0.05, <0.01, <0.001 and <0.0001, respectively.
(In western blotting, separated proteins are transferred to a membrane and probed.)
Take B1: the “degree of α-CTF increase compared to ApoE CT” value (from here on “degree of α-CTF increase”) is “even higher”.

For B2, the “degree of α-CTF increase” value is given as “even higher”.

Turning to B3, the “degree of α-CTF increase” value is on record as “even higher”.

Take B4: the “degree of α-CTF increase” value is on record as “identical to that of human ApoE CT”.

Staying with this test, now noted: Western blot, vs GFP control.
B5: the “α-CTF produced by co-expressed APP” value was “significantly increases α-CTF; also recorded: increased α-CTF”.

Regarding B6, the “α-CTF produced by co-expressed APP” value was “can no longer increase α-CTF; also recorded: failed to increase”.

As for B7, the “α-CTF produced by co-expressed APP” value is given as “can no longer increase α-CTF; also recorded: failed to increase”.

On to B8, for which the “α-CTF produced by co-expressed APP” value is “can no longer increase α-CTF; also recorded: failed to increase”.

For B9, the “α-CTF produced by co-expressed APP” value is on record as “still significantly increase α-CTF; also recorded: can also significantly increase α-CTF”.

With B10, the “α-CTF produced by co-expressed APP” value is listed as “significantly increased α-CTF”.

For B1, the “α-CTF produced by co-expressed APP” value is on record as “significantly increased α-CTF”.

B2: the “α-CTF produced by co-expressed APP” value is “significantly increased α-CTF”.

Turning to B11, the “α-CTF produced by co-expressed APP” value was “can no longer increase α-CTF; also recorded: failed to increase”.

Turning to B3, the “α-CTF produced by co-expressed APP” value was “significantly increased α-CTF”.

With B4, the “α-CTF produced by co-expressed APP” value is given as “also increase α-CTF”.

Consider B12, for which the “α-CTF produced by co-expressed APP” value is “significantly increased α-CTF”.

Take B13: the “α-CTF produced by co-expressed APP” value is recorded as “still significantly increase α-CTF; also recorded: can also significantly increase α-CTF”.

As for B14, the “α-CTF produced by co-expressed APP” value is “significantly increased α-CTF”.

As to B15, the “α-CTF produced by co-expressed APP” value is listed as “still significantly increase α-CTF; also recorded: can also significantly increase α-CTF”.

For B16, the “α-CTF produced by co-expressed APP” value is “significantly increased α-CTF”.

Turning to B17, the “α-CTF produced by co-expressed APP” value was “significantly increases α-CTF; also recorded: also increased α-CTF”.

The same test, now with this note: Western blot, vs GFP control, listed as ApoE CT from a non-human primate.
In the case of B4, the “α-CTF produced by co-expressed APP” value is recorded as “significantly increased α-CTF”.
